# From patent US20120065106
# What was measured:
# [1] = system: SMT3-GFP (wild-type SUMO-GFP fusion) [SUMO: Q12306]
# [2] = system: SUMO*-GFP (engineered SUMO 2F4, Smt3 R64T R71E, fused to GFP)
# Chain of SUMO*-GFP (engineered SUMO 2F4, Smt3 R64T R71E, fused to GFP) (chain, as listed by the source R64T R71E): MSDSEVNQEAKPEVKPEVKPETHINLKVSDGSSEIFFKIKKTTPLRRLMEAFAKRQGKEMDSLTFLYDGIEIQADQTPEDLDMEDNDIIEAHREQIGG
# Chain of SMT3-GFP (wild-type SUMO-GFP fusion) [SUMO: Q12306] (Q12306 whole entry, looked up, the tested form may be a part): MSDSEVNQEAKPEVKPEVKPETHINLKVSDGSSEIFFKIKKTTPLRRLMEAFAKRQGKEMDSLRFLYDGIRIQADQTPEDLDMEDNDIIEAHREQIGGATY
substance,measurement,setting,value
SUMO protease 2 (SENP2),in vitro cleavage (SDS-PAGE and anti-Smt3 Western blot),[1],wild-type SUMO (Smt3) is cleaved by ULP1 and SENP2 (SUMO protease 1 and 2) in vitro
same,in vitro cleavage reaction,[2],Neither protease cleaved SUMO*
